From the nanobody polyreactivity screen of Harvey et al. (2022)

Assay: yeast display, Sf9 membrane polyspecificity reagent, FACS + sequencing; frameworks hold sequencing errors
Method in brief: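 After 36–48 hours of galactose induction, yeast (Saccharomyces cerevisiae BJ5465) displaying a synthetic nanobody library were stained at 4 °C for 1 hour with 10% biotinylated, detergent-solubilized Sf9 membrane reagent. Streptavidin microbeads enriched the stained cells before FACS sorting into low and high (top ~1%) gates on anti-HA and streptavidin fluorescence. Each clone's polyreactivity label reflects its gate of origin.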

Sequence | polyreactivity (PSR sort gate)
QVQLVESVGGLVQAGGSLRLSCASSGFIFATNTMGCYRQAPGKERALVAAMSRSGGSTYYADSVKGRFTISRDNAKNTVYLQMNSLKPEDTAVYYCAADVRLRSTRARFDYWGQGTQVTVSS | high polyreactivity
QVQLVESVGGLVQAGGSLRLSCDASGGIFWVYAMGWYRQAPGKERELVAAISNSDTSTSYADSVKGRFTISRDNAKNTVYLQMNSLKPEDTAVYYCNADSPSLSGDYWGQGTQVTVSS | low polyreactivity
QVQLVESVGGLVQAGGSLRLSCSASGITFSYNAMGWYRQAPGKERELVAAISDIGGSTYYADSVKGRFTISRDNAKNTVYLQMNSLKPEDTAVYYCAADEYYQDEYDYWGQGTQVTVSS | low polyreactivity
QVQLVESVGGLVQAGGSLRLSCSASGSIIYSYAMGWYRQAPGKERELVADITTGGGSTYYADSVKGRFTISRDNAKNTVYLQMNSLKPEDTAVYYCAAEQDTVWFLWIVDYCGQGTQVTVSS | low polyreactivity
QVQLVESVGGLVQAGGSLRLSSAASGLIFDVYPMGWYSQGPGKERELVAAISTSGGRTYYADSVKGRFTISRDNAKNTVYLQMTSLKPEDTAVYYCAAVSPHNRYGYKYDYWGQGTQVTVSS | high polyreactivity
QVQLVESVGGLVQAGGSLRLSSAASGRTFKGNAMGCYSQAHGKERELVAVITGSGGSTYYADSVKGRFTISRDNAKNTVYLQMNSLKPEDTAVYYCNKKLQRRSWYVYWGLGTQVTVSS | low polyreactivity
QVQLVESVGGLVQAGGSLRLSSAASGRTFYFYTMGWYTQAPGKERELVATIRWSAGSTYYADSVKGRFTISRDNAKNTVYLQMNSLKPEDTAVYYCNADPYVYSSWQYGYWGQGTQVTVSS | high polyreactivity
QVQLVESVGGLVQAGGSLRLSSAASGRTSWYYAMGWYRQAPGKERELVATITRTTGSTYYADSVKGRFTISRDNAKNTVYLQMNSLKPEDTAVYYCDRLYYFNGDYWGLGTQVTVSS | high polyreactivity
QVQLVESVGGLVQAGGSLRLSSSASGSNCVLNAIGWYRQAPGKEWELVAAITKVGSTYYADSVKGRFTISRDNAKNTVYLQMNSLIPEDTAVYYCNADPGEVLVGYDYWGQGTQVTVSS | low polyreactivity
QVQLVESVGGLVQAGVSLRLSCAASGRIFGRYPMGWYRQAPGKERELVAAISFNGGSTSYADSVKGRFTISRDNAKNTVYLQMNSLKQEDTAVYYCAAKYRGFNYWGQGTQVTVSS | high polyreactivity
QVQLVESVGGLVQEGGSLRLSCAASGFTFAFYAMGWYRQAPGKERELVAAMTRSGGSTYYADSVKGRFTISRDNAKNTVYLQMNSLKPEDTAVYYCAAVISRWGRSTYDYWGQGTQVTVSS | high polyreactivity
QVQLVESVGGVVQAGGSLRLSCAASGRIFDRNAKGWYSQAPGKERELVAAITSGGSTNYADSVKGRFTISRDNAKNTVYLQMNSLKPEDTAVYYCANDFTSRYAPPEAYDYWGQGTQVTVSS | low polyreactivity
QVQLVESVGRLVQAGGSLRLSCAASGFIFIFYTMGWYRHAPGKERELVASITSSGGSTYYADSVKGRFTISRDNAKNTVYLQMNSLNPEDTAVYYCAAKKYRSPRGYWGLGTQVTVSS | high polyreactivity
QVQLVESVGRLVQAGGSLRLSCAASGIIFSVNAMGWYRQAPGKERELVAAITYSGGSTYYADSVKGRFTISRDNAKNTVYLQMNSLKPEDTAVYYCATSYYSSGTWSEYYYWCQGTQVTVSS | high polyreactivity
QVQLVESVGVLVQAGGSLPLSCAASGFTFQQYAMGWYRQAPGKERELVAAISWSGGSTNYADSVKGRFTISRDNAKNTVYLQMNSMKPEDTAVYYCAAYLRYYRKEVGYSSMNYWGQGTQVTVSS | high polyreactivity
QVQLVESVGVLVQAGGSLRLSSAASGGILPRYAMGWYRQAPGKERELVAVITRGGSTYYADSVKGRFTISRDNAKNTVYLQMNSLKPEDNAVYYFAKYRYQTGIFYYWGQGTQVTVSS | high polyreactivity
QVQLVESVRGLVQAGGSLLLSCAASGITITHYDMGWYRHSSGKESELVAAITSSGRTYYADSVKGRFSLSRDNAKNTVYLQMNSLKPEDTAVYYCDAEHSWFYGLLGYWGQGTQVTVSW | high polyreactivity
QVQLVESVRGLVQAGGSLRLICDASGRTFPRYAKGWNRQAPGKEWEFVAAIRYSGDNTYYADSVKGRFTISRDNAKNTVYLQMNSLKPEDTAVYYCAARTYGNYRYSTYYYWGQGTQVTVSS | high polyreactivity
QVQLVESVRGLVQAGGSLRLSCAASGRILPSNAMGWYRQAPGKERELVAGITSGGSTDYADSVKGRFTISRDNAKNTVYLQMNSLKPEDTAVYYCNKPFPYYPDGPNGYDYWGQGTQVTVSS | low polyreactivity
QVQLVESVRGLVQAGGSLRVSCAASGRTFIVYAMGWYRQAPGKERELVAGITRGSTKYADSVKGRFTISRDNAKNTVYLQMNSLKPEDTAVYYCAGRSSRRGPISEGDYWGQGTQVTVSS | high polyreactivity
QVQLVESVVGLVQAGGSLRLSCAASGSIFIENTMGWYRQAPGKERELVAAISGSVGRTFYADSVKGRFTISRDNAKNTVYLQMNSLKPEDTAVYYCAAVRRTSPGWVYYWGQGTRVTVSS | high polyreactivity

Sequence | polyreactivity (PSR sort gate)
QVQLVESVVGLVQAGVSLRLSCAASGSIFEQYAMGWYRQAPGKERELVAAISKRGTSTYYADSVKGRFTISRDNAKNTVYLQINSLKPEDNAVYDCAATNRWYYRAAASVYAFGYWGLGTQVTVSS | high polyreactivity
QVQLVESVVGLVQAVGTLRLSSAATGSTIYRNAMGWYRQPPGKEREFVAAISFRGGGTYADSVKGRFTISRDNAKNTVYLQMNSLKPEDTAVYYCAADHLSYRRRYEYWGQGTQVTVSS | low polyreactivity
QVQLVESVVGLVQSRVRHPLSCSASGIIFAQNAMGWYRQAPGKERELVARITSSGGGTNYADSVKGRFTISRDNAKNTVYLQMNSLKPEDTAVYYCATRWPYRSDWGQGTQVTVSS | high polyreactivity
QVQLVESWAGLVQAGGRLRLSCAASGSSFQVYAMGWYRQAPGKERELVAAISGDGGSTYYADSVKGRFTISRDNAKNTVYLQMNSLKPEDTAVYYCAARGLFRYTDYGYWGQGTQVTVST | low polyreactivity
QVQLVESWAGLVQAGGSLRLSCAASGIIFHFNDMGWYRQAPGKERELVAAITSGGSTNYADSVKARFTISRDNAKNNVYLQMNSLKPEDTAVYYCAARRGLRLFAYSHGYWGQGSQVTVSS | low polyreactivity
QVQLVESWGGLFQAGGSLRLSCAASGRTFSYNAMGWYRQAPGKERELVAAMTWRGSTTYYADSVKGRFTISRDHAKNTVYLQMNSLKPEDTAVYYCADATGQPYILDYWGQGTQVTVSS | low polyreactivity
QVQLVESWGGLVEAGGSLRLSCAASGRTFRSYAMVWYRQAPWKERELVAAISDGGSTNYADSVKGRFTISRDNAKNTVYLQMNSLKPEDTAVYYCAAVIFFAVFRFYYWGQGTQVTVSS | low polyreactivity
QVQLVESWGGLVHAGGSLRLSCAASGSIFDWYAMGWYRQAPGTERELVAAINEGGGSTYYADSVKGRFTISRDNAKNSVYLQMNSLKPEDTAVYYCAAGDYYLQDNYWGQGTQVTVSS | low polyreactivity
QVQLVESWGGLVHAGGSLRLSCAASGSTFAGYAMGWYRKATGTERELVATITYSGGSTYYADSVKGRFTISRDNAKNTVYLQMNSLKTEDTAVYYCAKKASYWWGYEYWGQGTQVTVSS | low polyreactivity
QVQLVESWGGLVQAGCSLRLSCAASGRTFRSYAMGWYRQATGKERELVAAISRNGGRTYYADSVKGRFTMSRDNAKYTVYSQMNSLKPEDTAVYYCAAVGDFDVYYWGQATQVTVSS | high polyreactivity
QVQLVESWGGLVQAGGRLRLSCAASGRIFWRYAMGWYRQAPGKERELVAAISGRGASTYYADSVKGRFTISRDNAKNTVYLQMNSLKPEDTAVYYCAASLRYRYRYYASDYGYWGQGTQVTVSS | high polyreactivity
QVQLVESWGGLVQAGGSLRLICAASGRIFYPYAMGWYRQAPGKERELVASITSGGGSYYADSVKGRFTISRDNAKNTVYLQMNSLKPEDTAVYYCAAPYITPYGTYVFSSVYWGQGTQVTVSS | low polyreactivity
QVQLVESWGGLVQAGGSLRLSCAASGFIFSSYGMGWYRQAPGKERELVADISGGGSTNYADSVKGRFTISRDNAKNTVYLQMISLNPEDTAVYYCNAQLIRSAAYDYWGQGTQVTVSS | low polyreactivity
QVQLVESWGGLVQAGGSLRLSCAASGFTFDYNGMGWYRQAPWKERELVAGIRWSGGSTYYADSVKGRFTISRDNAKNTVSLQMNSLKPEDTAFYYCAADTLPAEYEYDYWGQGTQVTVSS | low polyreactivity
QVQLVESWGGLVQAGGSLRLSCAASGFTFVSYAMGWYRQAPGKERELVAAISKRGGSTSYADSVKGRFTISRDNAKNTVYLQMNSLKPEDTAVYYCYNRSYAWSPHVDYWGQGTQVTVSS | high polyreactivity
QVQLVESWGGLVQAGGSLRLSCAASGGTFRKNTMGWYRQAPGKERELVAAITRRADRTYYADSVKGRFTISRDNAKHTVYLQMNSLKPEDTAVYYCNAPPPPTKVGGYDYWGQGTQVTVSS | high polyreactivity
QVQLVESWGGLVQAGGSLRLSCAASGLTFVKNAMGWYRQAPGKERELVAAITRTGGSTYYADSVKVRFTISRDNAKNTFYLQMNSLKPEDPAVYYCASRTPSPRRTKTAVDYWGQGTQVTVSS | high polyreactivity
QVQLVESWGGLVQAGGSLRLSCAASGRTFDGNAMGWYRQAPGKEGEFVATISTDGGSTHYADSVKGRFTISRDNAKNTVYLQMNSLKPEDTAVYYCAADTPWYDDNYDYWGQGTQVTVSS | low polyreactivity
QVQLVESWGGLVQAGGSLRLSCAASGRTFYSNAMGWYRQARGNERELVAAISRSGGTTYYADSVKGRFTISRDNAKNTVYLLMNSLKPEDTAVYYCNTLRYGTTGKYDYWGQGTQVTVSS | high polyreactivity
QVQLVESWGGLVQAGGSLRLSCAASGRTFYYYTMGWYRQAPGKEREFVAAISWSGGGTYYADSVKGRFTISRDNAKNTDYLQMNILKPEDTAVYYCATGPRIRYDYWGQGTQVNVSS | high polyreactivity
